From PMC11173892

Target: recombinant human paraoxonase 2 (rPON2) (human) (UniProt Q15165)
Test: SEC; Hi-Load 26/600 Superdex 75, renaturing buffer (20 mM Hepes pH 8.5, 0.5 mM CaCl2, 0.1% trehalose), 1.5 mL/min, pooled Ni-NTA fractions of refolded rPON2; calibrated with gel filtration markers; dimer to monomers

stoichiometry N: 2
Substance: recombinant human paraoxonase 2 (rPON2) (from UniProt Q15165 1-354) (enzyme)
